Measurements taken from the nanobody polyreactivity screen of Harvey et al. (2022).

Assay: yeast display, Sf9 membrane polyspecificity reagent, FACS + sequencing; frameworks hold sequencing errors
Summary of the method: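 Nanobodies from a synthetic yeast display library (Saccharomyces cerevisiae BJ5465), induced 36–48 hours with galactose, were stained 1 hour at 4 °C with 10% biotinylated, detergent-solubilized Sf9 membrane reagent, enriched on streptavidin microbeads, then FACS-sorted. Anti-HA (expression) and streptavidin (reagent binding) fluorescence set low and high (top ~1%) gates. Polyreactivity labels come from the gate of origin. Genes were colony-PCR amplified, MiSeq 2 × 250 sequenced and filtered by CDR length.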

Sequence	polyreactivity (PSR sort gate)
QVQLVESGGGLVQAGGSLRLSCAASGITFRYYTMGWYRQAPGKERELVAAITTSGTGTYYADSVKGRFTISRDNAKNTVYLQMNSLNPEYSAVYYCATYPHIAVLSRYDYWGQGTQVTVSS	low polyreactivity
QVQLVESGGGLVQAGGSLRLSCAASGITFSAYAMGWYRQAPGKERELVARISTDADTYYADSVKGRFTISRDNAKNTVYLQMNSLKPEDTAVYYCNADWSWYNYYDFDYWGQGTQVTVSS	low polyreactivity
QVQLVESGGGLVQAGGSLRLSCAASGITFSFYVMGWDRQAPRKERELVAAISRGGSTYYADSVKGRFTISRDNAKNTVYLQMNSLKPEDTAVYYCAAVRLSRVYYWGQGTQVTVSA	high polyreactivity
QVQLVESGGGLVQAGGSLRLSCAASGITFSGNAKGWYRQAPGKERELDAAITFSGGITYYADSVKGRFTISRDNAKNTVFLQMNSLKPEDTAVYYSATDPIGGWTRPQRYGDDYWGQGTQVTVSS	low polyreactivity
QVQLVESGGGLVQAGGSLRLSCAASGITFSGNAMGWYRQAPGKEREFVAAITFSGGRTYYADSVKGRFTISRDNAKNTVYLQMNSLKPEDTAVYFCAAETPRGRWLGDYWGQGTQVTVSA	low polyreactivity
QVQLVESGGGLVQAGGSLRLSCAASGITFSGYDMGWYRQAPWKERELVASSTYYADSVKGRFTISRDNAKNTVYLQMNSLKPEDTAVYYCAADSPGDFGGYGFDYWGQGTQVTVSS	high polyreactivity
QVQLVESGGGLVQAGGSLRLSCAASGITFSKYAMGWYRQAPGKERELVASITWSGTSTYYADSVKGRFTISRDNAKNTVYLQMNSLKPEDTAVYYCAAEGWGTFWRPPNGYGYEHDYWGQGTQVTVSS	low polyreactivity
QVQLVESGGGLVQAGGSLRLSCAASGITFSNYSMGWYRQAPGKERELVAAISKRGGSTYYADSVKGRFTISRDNAKNTVYLQMNSLKPEDTAVYNCAAAGVRVYVRSGLDYWGQGTQVTVSS	high polyreactivity
QVQLVESGGGLVQAGGSLRLSCAASGITFSRNAMGWYRQAPGKERELVAVISTRGGRTYYADSVKGRFTISRDNAKNTVYLQMNSLKPEDTAVYYCAASPDPYWRRMDYWGQGTQVTVSS	high polyreactivity
QVQLVESGGGLVQAGGSLRLSCAASGITFSRYAMGWYRQAPGKERELVAAITARGGTTYYADSVKGRFTISRDNAKNTVYLQMNSLKPEDTAVYYCAAYKTYGSKYVFVDPGEYDYWGQGTQVTVSS	high polyreactivity
QVQLVESGGGLVQAGGSLRLSCAASGITFSRYAMGWYRQAPGKERELVAAITSSGGSTYYADSVKGRFTISRDNAKNTVYLQMNSLKPEDTAVYYCAATSYYTREQYYYWGQGTQVTVSS	high polyreactivity
QVQLVESGGGLVQAGGSLRLSCAASGITFSSYAMGWSRQAPGKERELVAAIRRRGGTTYYADSVKGPFTISRDNAKNTVYLQMNSLKPEDTAVYYCAARSKSAYWGQGTQVTVSS	high polyreactivity
QVQLVESGGGLVQAGGSLRLSCAASGITFSYALGWYRQAPGKERELVAGITTSGGSTYADSVKGRFTISRDNAKNTVYLQMNSLKPEDTAVYYCAADRSAVQFSAFLEYDYWGQGSQVTVSS	low polyreactivity
QVQLVESGGGLVQAGGSLRLSCAASGITFSYNAMGWYRQAPGKERELVAAISSNSDSTYYADSVKGRFTISRDNAKNTVYLQMISLKPEDTAVYYCADDTPDAPDYSGFYYWGQGTQVTVSS	low polyreactivity
QVQLVESGGGLVQAGGSLRLSCAASGITFSYYAMGWYRKAARKERELVAAINGGGSRTYYADSVKGRFTISRDNAKNTVYLQMNSLKPEETAVYYCAAYSGQARGYDYWGQGTQVTVSS	high polyreactivity
QVQLVESGGGLVQAGGSLRLSCAASGITFSYYAMGWYRPAPGKERELVAAINSGGGSTYYADSVKGRFTISRDNAKNTVYLQMNSLKPEDTAVYYCAARYRSRYDYYYDRDYWGQGTQVTVSS	low polyreactivity
QVQLVESGGGLVQAGGSLRLSCAASGITFTFYAMGWYRQAPGKERELVAAISRRGGSTYYADSVKGRFTISRDNAKNTVYLQMNSLKPEDTAVYYCAARGYRPMDYWGQGTQVTVSS	high polyreactivity
QVQLVESGGGLVQAGGSLRLSCAASGITFTRYTMGWYRPAPGKERELVAAITGGSTYYADSVKGRFTISRDNAKNTVYLQMNSLKPEDTAVYYCAAAYESPYIQPLDYWGQGTQVTVSS	high polyreactivity
QVQLVESGGGLVQAGGSLRLSCAASGITFTSYAMGWYRQAPGKERELVAAISSSGGSTYYADSVKGRFTISRDNAKNTVYLQMNRLKPEDTAVFYCNARPRSRSPRVEYDYWGQGTQVNVSS	high polyreactivity
QVQLVESGGGLVQAGGSLRLSCAASGITFTSYAMGWYRQAPGKERELVASIDSDDSTNYADSVKGRFTISRDNAKNTVYLQMNSLKPEDTAVYYCAASDNDDWYYVYHYDYWGQGTQVTVSS	low polyreactivity
QVQLVESGGGLVQAGGSLRLSCAASGITFTSYVMGWYRQAPGKERELVAAIRWSGGRTYYADSVKGRFTISRDNAKNTVYLQMNSLKPEDTAVYYCNADYAYNSYGYRFYYWGQGTQVTVSS	high polyreactivity
QVQLVESGGGLVQAGGSLRLSCAASGITFTVNAMGWYRQAPGKERELVAAISNDGSTYYADSVKGRFTISRDNAKNTVYLQMNSLKPEDTAVYYCSADTWDDFGPYGYDYWGQGTQVTVSS	low polyreactivity

Sequence	polyreactivity (PSR sort gate)
QVQLVESGGGLVQAGGSLRLSCAASGITFTVYAMGWYRQARGKERELVAAINSGSSTNYADSVKGRFTISRDNAKNTVFLQMNSLKPEDTAVYYCAASYRKLPDKKRYGYWGQGTQVTVSS	high polyreactivity
QVQLVESGGGLVQAGGSLRLSCAASGITFTVYTMGWYRQAPGKERELVAAITTSGTTTYYADSVKGRFTISRDNAKNTVYLQINSLKPEDTAVYYCAARQVWGEGVKSYYWGQGTQVTVSS	high polyreactivity
QVQLVESGGGLVQAGGSLRLSCAASGITFTWYGMGWYRQAPGKERELVAAISLTGARTYYADSVKGRFTISRDNAKNTVYLQMNSLKPEDTAVYYCNARPQGRGGTYLPRYDYWGQGTQVTVSS	high polyreactivity
QVQLVESGGGLVQAGGSLRLSCAASGITFVANAMGWYRQAPGKERELVAGITQTGGSTYYADSVKGRFTISRDNAKNTVYLQMNSLKPEDTAVYYCAATYRRLRYGKLYYYWGQGTQVTVSS	high polyreactivity
QVQLVESGGGLVQAGGSLRLSCAASGITFVAYAMGWYRQAPGKERELVAAISYNGGSTNYADSVKGRFTISRDNAKNTVYLQMNSLKPEDTAVYYCAADLAEFYPRFNYWGQGTQVTVSS	low polyreactivity
QVQLVESGGGLVQAGGSLRLSCAASGITFVDYAMGWYRQAPGKEREFVAAISWSGGSTYYADSVKGRFTISRDNAKNTVYLQMNSLKPEDTAVYYCAARPKFGTAHRYYYWGQGTQVTVSS	high polyreactivity
QVQLVESGGGLVQAGGSLRLSCAASGITFVGYAMGWYRQAPGKERELVAVINTSSSTYYADSVKGRFTISRDNAKNTVYLQLNSLKPEATAVYYCGVRGRYYYRRPQISYEYWGQGTQVTVSS	low polyreactivity
QVQLVESGGGLVQAGGSLRLSCAASGITFVHNVMGWYRQAPGKDRELVAAINSGGRTYYADSVKGRFTISRDNAKKTVYLQMNSLKPEDSAVYYCAALGDKRGGGHYWGQGTQVTVSS	high polyreactivity
QVQLVESGGGLVQAGGSLRLSCAASGITFVHYAMGWYRQAPGKERELVAAISSGGGSTYYADSVKGRFTLSRDHAKNTGNLQMHSLNPEDTAVDNCAAYVLPYGEYDYWGQGTQVTVSS	low polyreactivity
QVQLVESGGGLVQAGGSLRLSCAASGITFVHYVMGWYRQAPGKERELVAVITKGGARTSYADSVKGRFTISRDNAKNTVYLQMNSLKPEDTAVYYCAAREVYPLFTKYYYWGQGTQVTVSS	high polyreactivity
QVQLVESGGGLVQAGGSLRLSCAASGITFVPNAMGWYRQAPGKERELVARIDNGVSTNYADSVKGRFTISRDNAKNTVYLQMNSLKPEDTAVYYCAVGYWDSRYRYDWPNSDYWGQGTQVTVSS	low polyreactivity
QVQLVESGGGLVQAGGSLRLSCAASGITFVPYAMGWDRQAPGKERELVAAISSSGGSTYYADSVKGRFTISRDNAKNTVYLQMNSLKPEDTAVYYCNVRTHSYIGMDYWGQGTQVTVSS	low polyreactivity
QVQLVESGGGLVQAGGSLRLSCAASGITFVPYVMGWYRQAPGKERELVAAITVRGSRTYYADSVKGRFTISRDNAKNTVYLQMNSLKPEDTAVYYCAAGRYLSRTFFTYYYWGQGTQVTVSS	high polyreactivity
QVQLVESGGGLVQAGGSLRLSCAASGITFVQNVMGWYRQAPGKEREFVAGINNSGGSTYYADSVKGRFTISRDNAKNTVYLQMNSLKPEDTAVYYCAAVYDRYTYAFVYRYRRMYYWGQGTQVTVSS	low polyreactivity
QVQLVESGGGLVQAGGSLRLSCAASGITFVRNAMGWYRQAPGKEREFVAAISGSGVSTYADSVKGRFTISRDNAKNTVYLQMNSLKQEDTAVYYCNTDEWYHFYHGSHKYDYWGQGTQVTVSS	low polyreactivity
QVQLVESGGGLVQAGGSLRLSCAASGITFVRNAMGWYRQAPGKEREFVAAISGSGVSTYADSVKGRFTISRDNAKNTVYLQMNSLNPEDTAVYYCARDFPWSYAWYDYWGQGTQVTVSS	low polyreactivity
QVQLVESGGGLVQAGGSLRLSCAASGITFVRNAMGWYRQAPGKERELVAAISSGGSTYYADSVKGRFTISRDNAKNTVYLQINSLKPEDTAVYYCNAQIYGRQYRYRWHYYWGQGTQVTVSS	high polyreactivity
QVQLVESGGGLVQAGGSLRLSCAASGITFVRNTMGWYRQAPGKERELVAAIDSGGNTNADSVKGRFTISRDNAKNTVYLQMNSLTPEDTAVYYCAVDGGEFSSYGYWGQGTQVTVSW	low polyreactivity
QVQLVESGGGLVQAGGSLRLSCAASGITFVRNTMGWYRQAPGKERELVAAISKSGDNTYYADSVKGRFTISRDNAKNTVYLQMNSLKPEDTAVYYCNKAYRKFYYGYDYWGQGTQVTVSS	high polyreactivity
QVQLVESGGGLVQAGGSLRLSCAASGITFVTYAMGWYRKAPGKERELVAAISRSGGRTYYADSVKGRFTISRDNAKNTVYLQMNSLKPEDTAVYYCAAERKNKYDYWGQGTQVTVSS	high polyreactivity
QVQLVESGGGLVQAGGSLRLSCAASGITFVYYTMGWYRQAPGKERELVAAISSTGGSTYYADSVKGRFTISRDNAKNTVYLQMNSLKPEDTAVYYCAADARTFGGYGYWGQGTQVTVAS	high polyreactivity
